Experimental data from patent publication US20120058126A1 (Eli Lilly, published 2012).
Each block holds one binder with its values, some of them ahead of it.

Legend:
[1] = target: chimera 4 (human Ig1-mouse Ig2-human Ig3) sR3-AP (human; mouse, UniProt P05187 23-511); assay: sR3-AP chimera binding assay on antibody-coated plates
Procedure: (§1) After 2 hr incubation, the plates are washed 5 times and bound sR3-AP is detected by chemiluminescence.
(§2) DNA sequences encoding mouse and human Ig domains 1-3 are swapped in various combinations to form the following VEGFR-3 extracellular domain constructs: i) wild-type human; ii) wild-type mouse; iii) chimera 1 (human Ig1-human Ig2-mouse Ig3); chimera 2 (human Ig1-mouse Ig2-mouse Ig3); (iv) chimera 3 (mouse Ig1-human Ig2-mouse Ig3) and (v) chimera 4 (human Ig1-mouse Ig2-human Ig3). The constructs are expressed as fusion proteins with alkaline phosphatase (AP) Persaud, et al., supra. The encoded proteins are isolated from conditioned media (CM) of transiently transfected cells and normalized to equal protein concentration and AP activity.

[2] = target: chimera 2 (human Ig1-mouse Ig2-mouse Ig3) sR3-AP (human; mouse, UniProt P05187 23-511); assay: as above
Procedure: as §1, §2

[3] = target: T1, human sR3-AP (full-length soluble extracellular region of human VEGFR-3, Ig domains 1-7, fused to human … (human)); assay: SPR, BIACORE 2000 at 20° C, sR3-AP immobilized, antibody injected at 0.8 to 6.25 nM
T1 construct: also called soluble extracellular domain of human VEGFR-3
Procedure: Sensograms are evaluated using the BIA Evaluation 3.2 program to determine the on rates (ka) and the off rates (kd). The dissociation constant (Kd) is calculated from the ka and kd rates using the equation: […].

[4] = target: T1, human sR3-AP (full-length soluble …); assay: competitive VEGF-C blocking assay: Fab mixed with 50 ng sR3-AP, plates coated with VEGF-CΔNΔC, OD405; Fab, not IgG
Procedure: After an additional 2 hours, the plates are washed five times and p-nitrophenyl phosphate (Sigma) is added to quantify the bound sR3-AP molecules at OD₄₀₅ₙₘ.

[5] = target: T2, VEGFR-3-cFMS chimeric receptor (extracellular domain of human VEGFR-3 fused with the transmembrane and … (human, UniProt P07333 518-972, limits assumed)); assay: cell-based or functional assay
T2 sequence: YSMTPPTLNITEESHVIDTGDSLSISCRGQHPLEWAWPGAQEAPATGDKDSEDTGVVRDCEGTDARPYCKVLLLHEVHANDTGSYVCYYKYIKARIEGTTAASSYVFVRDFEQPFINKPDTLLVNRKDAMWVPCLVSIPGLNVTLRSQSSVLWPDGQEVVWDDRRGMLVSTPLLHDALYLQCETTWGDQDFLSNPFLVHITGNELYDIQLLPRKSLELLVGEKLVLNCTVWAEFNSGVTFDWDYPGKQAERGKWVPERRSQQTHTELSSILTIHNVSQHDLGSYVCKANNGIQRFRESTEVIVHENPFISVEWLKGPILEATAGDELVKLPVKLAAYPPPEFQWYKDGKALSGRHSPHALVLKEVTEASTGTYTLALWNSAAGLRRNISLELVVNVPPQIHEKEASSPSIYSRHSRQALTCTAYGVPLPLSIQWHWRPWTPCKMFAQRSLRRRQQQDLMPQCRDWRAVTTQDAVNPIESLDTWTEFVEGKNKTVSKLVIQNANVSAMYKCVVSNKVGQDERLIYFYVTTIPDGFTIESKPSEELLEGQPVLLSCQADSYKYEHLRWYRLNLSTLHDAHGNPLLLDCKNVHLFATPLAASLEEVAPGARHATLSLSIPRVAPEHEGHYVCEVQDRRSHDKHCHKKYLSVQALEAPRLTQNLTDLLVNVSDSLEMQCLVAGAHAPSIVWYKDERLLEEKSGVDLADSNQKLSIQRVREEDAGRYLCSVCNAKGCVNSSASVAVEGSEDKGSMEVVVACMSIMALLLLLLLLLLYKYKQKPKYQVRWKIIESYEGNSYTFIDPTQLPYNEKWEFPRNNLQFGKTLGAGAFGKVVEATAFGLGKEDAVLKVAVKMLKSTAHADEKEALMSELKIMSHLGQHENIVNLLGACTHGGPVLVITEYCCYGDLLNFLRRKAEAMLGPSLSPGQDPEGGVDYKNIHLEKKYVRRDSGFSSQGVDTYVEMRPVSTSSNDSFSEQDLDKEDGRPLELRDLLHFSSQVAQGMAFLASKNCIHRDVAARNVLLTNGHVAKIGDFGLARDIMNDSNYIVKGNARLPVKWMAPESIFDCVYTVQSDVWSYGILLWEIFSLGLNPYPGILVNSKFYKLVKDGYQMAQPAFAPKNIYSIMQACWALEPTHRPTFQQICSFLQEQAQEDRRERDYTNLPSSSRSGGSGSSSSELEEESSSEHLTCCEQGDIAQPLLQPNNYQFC

binding result [1]: no binding | binding result [2]: no binding | Kd [3]: 0.056 nM
B1: Antibody 1 (IgG form) (antibody, V domains shown)
VH: QVQLQQSGPGLVKPSQTLSLTCAISGDSVSGNSATWNWIRQSPSRGLEWLGRTYYRSKWNHDYAESVKSRITINPDTSKNQFSLQLNSVTPEDTAVYYCARGDSSSWYAFDYWGQGTLVTVSS
VL: EIVLTQSPGTLSLSLGERATLSCRASQSISSSFLAWYQQKPGQAPKLLIYAASTRATGIPDRFSGSGSGTDFTLTISRLEPEDFAVYYCQQYGRSLSFGGGTKVEVKR
notes: also called human anti-VEGFR-3 mAb

IC50 [4]: 2 nM
B2: Antibody 1 (Fab form) (Fab, V domains shown)
VH: B1 VH
VL: EIVLTQSPGTLSLSLGERATLSCRASQSISSSFLAWYQQKPGQAPKLLIYAASTRATGIPDRFSGSGSGTDFTLTISRLEPEDFAVYYCQQYGRSLSFGGGTKVEVK
notes: also called Fab of Antibody 1

incorporation of [3H]-TdR (mitogenic response) [5]: ≥ 3 fold
B3: recombinant mature human VEGF-CΔNΔC (ligand)
chain: AHYNTEILKSIDNEWRKTQCMPREVCIDVGKEFGVATNTFFKPPCVSVYRCGGCCNSEGLQCMNTSTSYLSKTLFEITVPLSQGPKPVTISFANHTSCRCMSKL
